Measurements taken from patent US20130263331A1.

Legend:
[1] = molecular target: putative receptor(s) on brush border membrane vesicles (BBMV) prepared from midguts of third instars of the western corn rootworm (Diabrotica virgifera virgifera LeConte) (Diabrotica virgifera virgifera)
[2] = molecular target: putative receptor(s) on brush border membrane vesicles (BBMV) prepared from midguts of third instars of the western corn rootworm (Diabrotica virgifera virgifera LeConte) (Diabrotica virgifera virgifera); test: Homologous competition: unlabeled Cry3Aa (0-2500 nM) against 5 nM 125I-Cry3Aa on 0.1 mg/ml BBMV; value at about 2500 nM competitor

Row | Substance | Kd [1] | binding site concentration Bmax (pmole/mg BBMV) [1] | percent of bound 125I-Cry3Aa displaced [2]
1 | Full-length Cry6Aa1 (from UniProt Q45757 1-475) | 10.1 nM | 0.66 | 
2 | Cry3Aa trypsin core (from UniProt P0A379 159-644) | 24 nM | 22 | 60%
